Source: patent US8987201B2, “Black bear parathyroid hormone and methods of using black bear parathyroid hormone” (Michigan Technological University, priority 2009, dated 2015)
Marks after values point to notes of the source that are not given here. No end group written: not given here.

Columns and labels:
ovariectomized rats = conditions: cited from earlier work
[1] = Serum calcium levels in the rat OVX dose response study; format: in vivo; conditions: OVX rats; not significant at the p<0.05 level
Experimental: Ninety female, 3-month old Sprague-Dawley rats were obtained. Eighty (80) of the rats were ovariectomized (OVX) and ten (10) underwent a sham OVX procedure (sham OVX) in which the ovaries were left in the animal. The OVX animals were randomly assigned into groups of ten for further experiments.
Following the actual or sham OVX procedure, all animals were untreated for 6 weeks to allow bone loss. After the 6 week period of bone loss, groups of animals were injected for a six- or eight-week period (daily for five days per week) with vehicle (saline) or 3, 10, or 30 μg/kg bear or human PTH1-34. […] The sham OVX group as well as one group of actual OVX rats were euthanized at six weeks while the remaining animals were euthanized at fourteen weeks following the OVX procedure. Samples were obtained from the euthanized animals for further analysis.

rats = conditions: long-term usage; cited from earlier work
Male Swiss-Webster mice [2] = assay: Trabecular bone structure and mineralization in the proximal tibia (micro-computed tomography); format: in vivo, mouse; conditions: 8 weeks
Source text: (§1) All handling procedures and experiments were approved by the Michigan Technological University Institutional Animal Care and Use Committees. Male Swiss-Webster mice were obtained from a commercial breeder (Harlan, Indianapolis, Ind.). All animals were maintained on a 12-h light/12-h dark cycle, and were permitted free access to water and food containing 0.95% calcium (Purina Rodent Diet #5001).
(§2) In the first experiment, 11 wk old mice received daily (5 days/week) subcutaneous injections of 2.5 nmol/kg PTH 1-34 (hPTH 1-34 or bbPTH 1-34) or acidic saline vehicle (0.15 M NaCl+0.001 N HCl) for 8 weeks (n=10 mice/group). In the second experiment, 12 wk old mice received daily (5 days/week) subcutaneous injections of 2.5 nmol/kg PTH 1-84 (hPTH 1-84 or bbPTH 1-84) or acidic saline vehicle for 8 weeks (n=10 mice/group). All PTH- and vehicle-treated animals received subcutaneous injections of calcein at a dosage of 10 mg/kg on days 12 and 3 before death to label mineralizing bone surfaces. Twenty-four hours following the last treatment injection, mice were sacrificed by carbon dioxide asphyxiation. Right femurs were fixed in 10% neutral buffered formalin. Left femurs were wrapped in 0.15M saline soaked gauze and stored at −20 deg C. Left tibias were stored in 70% ethanol at 4 deg C.
Trabecular bone architecture and mineralization were evaluated in the left proximal tibial metaphysis (0.7 mm distal to the growth plate) using micro-computed tomography. Tibias from experiment 1 were scanned on a μCT35 scanner (Scanco Medical AG, Basserdorf, Switzerland) at 3.5 μm (high) resolution. Tibias from experiment 2 were scanned on a μCT40 scanner (Scanco Medical AG, Basserdorf, Switzerland) at 7 μm (high) resolution. Bones were scanned in 70% ethanol. Trabecular bone volume fraction (BV/TV, %), trabecular number (Tb.N, mm^−1), trabecular thickness (Tb.Th, m), trabecular separation (Tb.Sp, m), trabecular apparent mineral density (App.Mn.Dn, mgHA/cm^3) and trabecular tissue mineral density (Mat.Mn.Dn, mgHA/cm^3) were computed using the manufacturer's software.
(§3) All bone geometrical, architectural, and mineral properties were normalized by body mass to account for potential variation in animal size (31-33). Trabecular bone properties quantified by micro-computed tomography were compared by ANOVA between vehicle, bear, and human PTH-treated mice within each study (PTH 1-34 or PTH 1-84). The microCT parameters were not directly compared between the PTH 1-34 and PTH 1-84 studies because analyses were conducted on different microCT machines. For all other bone properties, all six experimental groups (from both the PTH 1-34 and PTH 1-84 studies) were compared with ANOVA and Fisher's PLSD. A significance of p<0.05 was used for all comparisons.

Male Swiss-Webster mice [3] = assay: Cortical bone mechanical properties of the femur (3-point bending); format: in vivo, mouse; conditions: 2.5 nmol/kg, 8 weeks
Source text: as §1
In the first experiment, 11 wk old mice received daily (5 days/week) subcutaneous injections of 2.5 nmol/kg PTH 1-34 (hPTH 1-34 or bbPTH 1-34) or acidic saline vehicle (0.15 M NaCl+0.001 N HCl) for 8 weeks (n=10 mice/group). In the second experiment, 12 wk old mice received daily (5 days/week) subcutaneous injections of 2.5 nmol/kg PTH 1-84 (hPTH 1-84 or bbPTH 1-84) or acidic saline vehicle for 8 weeks (n=10 mice/group). […]
Left femurs were loaded to failure in 3-point bending on an Instron mechanical testing system (Model #8872, Canton, Mass.) at a rate of 1 mm/min. […] Ultimate load was calculated using the load-deformation data from testing.
All bone geometrical, architectural, and mineral properties were normalized by body mass to account for potential variation in animal size (31-33). Trabecular bone properties quantified by micro-computed tomography were compared by ANOVA between vehicle, bear, and human PTH-treated mice within each study (PTH 1-34 or PTH 1-84). […]

[4] = system: human fetal osteoblasts (hFOB); assay: Serum starvation cell death in human fetal osteoblasts (trypan blue); format: cell-based; conditions: 100 nM for 1 hour before serum starvation for 24 hours, preliminary studies, p<0.0001
Experimental: All PTH peptides used in the current study attenuated apoptotic signaling induced by serum starvation in vitro (FIG. 19). bbPTH 1-34 reduced apoptotic signaling in pre-osteoblastic cells more than human PTH (FIG. 19). Recently, we found similar results with preliminary studies in human fetal osteoblasts (hFOB). Serum starvation for 24 hours increased cell death in hFOB (confirmed via trypan blue staining), but pretreatment of hFOB cells with 100 nM PTH 1-34 or 1-84 for 1 hour before starvation reduced percent cell death (percentage change in cell death compared to vehicle pretreatment, hPTH 1-34: −18%, bbPTH 1-34: −25%, hPTH 1-84: −17%, bbPTH 1-84: −21%; p<0.0001; data not shown). […] However, although bbPTH 1-84 was less anti-apoptotic than bbPTH 1-34 and hPTH 1-34 in vitro (FIG. 19) it caused the greatest increases in cortical and trabecular bone mass in the in vivo studies (Table 1, Table 2).

[5] = system: ovariectomized (OVX) Sprague-Dawley rats; assay: In vivo effects of human PTH1-84 and bear PTH1-84 in ovariectomized rats; set-up: species or system rat; conditions: 2.5 nmol/kg s.c., eight weeks
Experimental: Thirty female, 2.5-month old Sprague-Dawley rats were ovariectomized (OVX) at the commercial breeding facility The OVX animals were randomly assigned into 3 groups of 10 animals per group for further experiments.
Six weeks after the OVX procedure, the rats were injected subcutaneously for an eight-week period (daily for five days per week) with vehicle (saline) or 2.5 nmol/kg bear or human PTH1-84. Animals were euthanized 24 hours after the last injection. Samples were obtained from the euthanized animals for further analysis.
Femur bending strength and proximal tibia trabecular architecture were investigated as described in Example 12.

Male Swiss-Webster mice [6] = assay: Cortical bone dynamic histomorphometry in the femur (calcein labels); format: in vivo, mouse; conditions: femoral midshaft, 2.5 nmol/kg s.c., 8 weeks, SD in parentheses
Source text: as §1, §2
(§4) Following the bending test, the left femoral diaphyses were ashed in a furnace to determine mineral content (ash fraction). Right femoral diaphyses were embedded in methyl methacrylate and sectioned with a diamond saw to expose the midshaft cross-section. Images of the midshaft cross-sections were captured using a digital camera (Spot Insight QE, Diagnostic Instruments Inc., Sterling Heights, Mich.), and Scion Image analysis software (Scion Corporation, Frederick, Md.) was used to calculate the periosteal area (Ps.Ar), cortical area (Ct.Ar), and endosteal area (Es.Ar) for each sample. Cortical bone thickness (Ct.Th) was calculated in 0.1 mm increments for each anatomical quadrant and for the entire cross-section using image analysis software (Bioquant Osteo, Nashville, Tenn.). Thin sections from the midshaft of the right femur were ground to a thickness of 50 μm and mounted on glass slides. Images of calcein labels were captured at 100× magnification and periosteal and endosteal mineral apposition rates (Ps.MAR and Es.MAR, respectively) and mineralizing surfaces (Ps.MS/BS and Es.MS/MS) were quantified (Bioquant) for each femur.
as §3

Male Swiss-Webster mice [7] = assay: Cortical bone mineral content (ash fraction) and geometrical properties of the femur; format: in vivo, mouse; conditions: femoral midshaft, 2.5 nmol/kg s.c., 8 weeks, normalized by body mass, SD in parentheses
Source text: as §1, §2, §4, §3

[8] = PTH 1-84 study: 12 wk old mice, 2.5 nmol/kg s.c., proximal tibia, normalized by body mass

bovine PTH 1-34 (AVSEIQFMHNLGKHLSSMERVEWLRKKLQDVHNF; Parathyroid hormone; UniProt P01268 32-65, looked up, fragment) [1-34 fragment of bovine PTH]
greater bone formation response than to rat PTH 1-34 (ovariectomized rats; daily 25 μg injections): 25% | greater increase in bone volume fraction during treatment (ovariectomized rats; injection): 37%

SVSEIQFMHNLGKHLSSMERVEWLRKKLQDVHNF [bbPTH 1-34, black bear PTH 1-34]
serum calcium levels compared to human PTH1-34 [1]: lower

CC[C@H](C)[C@H](NC(=O)[C@H](CCC(=O)O)NC(=O)[C@H](CO)NC(=O)[C@@H](NC(=O)[C@@H](N)CO)C(C)C)C(=O)N[C@@H](CCC(N)=O)C(=O)N[C@@H](CC(C)C)C(=O)N[C@@H](CCSC)C(=O)N[C@@H](Cc1cnc[nH]1)C(=O)N[C@@H](CC(N)=O)C(=O)N[C@@H](CC(C)C)C(=O)NCC(=O)N[C@@H](CCCCN)C(=O)N[C@@H](Cc1cnc[nH]1)C(=O)N[C@@H](CC(C)C)C(=O)N[C@@H](CC(N)=O)C(=O)N[C@@H](CO)C(=O)N[C@@H](CCSC)C(=O)N[C@@H](CCC(=O)O)C(=O)N[C@@H](CCCN=C(N)N)C(=O)N[C@H](C(=O)N[C@@H](CCC(=O)O)C(=O)N[C@@H](Cc1c[nH]c2ccccc12)C(=O)N[C@@H](CC(C)C)C(=O)N[C@@H](CCCN=C(N)N)C(=O)N[C@@H](CCCCN)C(=O)N[C@@H](CCCCN)C(=O)N[C@@H](CC(C)C)C(=O)N[C@@H](CCC(N)=O)C(=O)N[C@@H](CC(=O)O)C(=O)N[C@H](C(=O)N[C@@H](Cc1cnc[nH]1)C(=O)N[C@@H](CC(N)=O)C(=O)N[C@@H](Cc1ccccc1)C(=O)O)C(C)C)C(C)C [LY333334]
osteosarcoma in rats (rats): generates osteosarcoma

B1: black bear PTH1-84 (protein, listed as Ursus americanus)
chain: SVSEIQFMHNLGKHLSSMERVEWLRKKLQDVHNFVALGAPTAHRDGGSQRPQKKEDNVLVENHQKSLGEADKADVDVLTKAKSQ
BV/TV (Male Swiss-Webster mice [2]; PTH 1-84 study: 12 wk old mice, 2.5 nmol/kg s.c. daily 5 days/week, proximal tibia, normalized by body mass): 2.26 %/kg | App. Mn. Dn (Male Swiss-Webster mice [2]; [8]): 3665 mgHA/(cm^3*kg) | Mat. Mn. Dn. (Male Swiss-Webster mice [2]; [8]): 30552 mgHA/(cm^3*kg) | Tb. N (Male Swiss-Webster mice [2]; [8]): 113.8 1/mm*kg | Tb. Sp (Male Swiss-Webster mice [2]; [8]): 8.47 mm/kg | Tb. Th (Male Swiss-Webster mice [2]; [8]): 1.38 mm/kg | trabecular apparent mineral density compared to other treatments (Male Swiss-Webster mice [2]; mice, 2.5 nmol/kg, bbPTH 1-84 vs hPTH 1-84 p=0.019): highest | trabecular bone volume fraction and apparent mineral density over vehicle treatment (Male Swiss-Webster mice [2]; mice, 2.5 nmol/kg, only this peptide): significantly increased over vehicle treatment | bone volume fraction in the proximal tibia compared to hPTH 1-84 (Male Swiss-Webster mice [2]; mice, 2.5 nmol/kg, p=0.013): greater | increase in bone strength (ultimate load of the femur), bear peptide compared to the corresponding human peptide (Male Swiss-Webster mice [3]): significantly (p=0.032) greater | increase of femoral ultimate load over vehicle treatment (Male Swiss-Webster mice [3]; only for this peptide): statistically significant | percentage change in cell death compared to vehicle pretreatment [4]: −21% | bone volume fraction / trabecular bone volume [5]: equivalently increase | increases in cortical bone strength compared to hPTH1-84 [5]: greater increases | ultimate load of the femur compared to vehicle treatment [5]: significantly (p=0.013) increased | Endosteal MAR (Male Swiss-Webster mice [6]): 0.59 (0.42) | Endosteal MS/BS (Male Swiss-Webster mice [6]): 24.5 (17.2) | Periosteal MAR (Male Swiss-Webster mice [6]): 0.62 (0.33) | Periosteal MS/BS (Male Swiss-Webster mice [6]): 31.3 (22.5) | Ct.Ar (Male Swiss-Webster mice [7]): 31.7 (3.7) mm^2/kg | Ct.Th (Male Swiss-Webster mice [7]): 3.56 (0.42)^a mm/kg | Es.Ar (Male Swiss-Webster mice [7]): 26.6 (4.6) mm^2/kg | Ps.Ar (Male Swiss-Webster mice [7]): 58.3 (5.0)^a,b mm^2/kg
